Assay [1] has as its target T1, human TIGIT-His protein (human, UniProt Q495A1 22-141).
T1 construct: Recombinant protein; also called human TIGIT-his tag; hTIGIT-His
T1 sequence (looked up): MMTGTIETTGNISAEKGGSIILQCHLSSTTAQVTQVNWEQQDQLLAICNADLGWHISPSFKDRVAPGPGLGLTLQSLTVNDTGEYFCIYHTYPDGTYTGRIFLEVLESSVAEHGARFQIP
Put plainly: ELISA, plate coated with human TIGIT-His, anti-human IgG-HRP, OD 450nm; unit taken from the axis Log[Conc.]/ng/ml. As for the experimental part:
To evaluate the antigen binding activity, the humanized antibodies were subjected to ELISA test. Briefly, microtiter plates were coated with human TIGIT-his protein at 0.5 µg/ml in PBS, 100 µl/well at 4° C. overnight, then blocked with 150 µl/well of 1% BSA. Three-fold dilutions of humanized antibodies starting from 3 µg/ml were added to each well and incubated for 1 hour at 37° C. The plates were washed with PBS/Tween and then incubated with Goat-anti-human IgG antibody conjugated with Horse Radish Peroxidase (HRP) for 30 mins at 37° C. After washing, the plates were developed with TMB substrate and analyzed by spectrophotometer at OD 450 nm.

Assay [2] has as its target T1, human TIGIT-His protein. Put plainly: SPR (Biacore) affinity ranking, human TIGIT-His. In general terms: In SPR one partner is held on a chip, and binding of the other changes the refractive index at the surface.

A word on the EC50: it is the concentration that produces a half-maximal response. A word on the Kd: it is the free concentration of one partner at which half of the binding sites on the other are occupied at equilibrium, for simple one-to-one binding. Low values mean tighter binding, high ones weaker binding. As a reminder, the koff is a measure of how fast the partners let go of each other. For orientation: kon means a measure of how fast the partners come together. Low readings indicate slow association, high ones fast association.

B1: 76D12B10-Hu08 (antibody, V domains shown)
VH: EVQLQESGPGLVKPSETLSLTCAVSGYSISSGYDWHWIRQPPGKGLEWMGFIRDSGSTVYNPSLKGRITISHDTSKNQFSLKLSSVTAADTAVYYCARGLFWYFDVWGQGTTVTVSS
VL: DIQMTQSPSSLSASVGDRVTITCRTSENIFSYLAWYQQKPGKVPKLLIHNTKTLAEGVPSRFSGSGSGTDFTLTISSLQPEDVATYYCQHHYGNPLTFGQGTKLEIK
notes: Humanized, VH.V3 + VK.V1
With B1, the EC50 in assay [1] is 9.54 ng/mL. In assay [2], this molecule registered a Kd of 0.0192 nM, a koff of 9.73e-05 s⁻¹ and a kon of 5.06e+06 M⁻¹ s⁻¹.

B2: 76D12B10-Hu03 (antibody, V domains shown)
VH: EVQLQESGPGLVKPSETLSLTCAVSGYSISSGYDWHWIRQPPGKGLEWMGFIRDSGSTVYNPSLKGRITISHDTSKNQFSLKLSSVTAADTAVYYCARGLFWYFDVWGQGTTVTVSS
VL: DIQMTQSPSSLSASVGDRVTITCRTSENIFSYLAWYQQKPGKVPKLLIYNTKTLAEGVPSRFSGSGSGTDFTLTISSLQPEDVATYYCQHHYGNPLTFGQGTKLEIK
notes: Humanized, VH.V3 + VK.V0
In assay [1], B2 registered an EC50 of 10.6 ng/mL. In assay [2], this molecule yielded a Kd of 0.0143 nM, a koff of 0.00015 s⁻¹ and a kon of 1.05e+07 M⁻¹ s⁻¹.

B3: 76D12B10-Hu14 (antibody, V domains shown)
VH: EVQLQESGPGLVKPSETLSLTCAASGYSITSGYDWHWIRQPPGKGLEWMGFIRDSGSTVYNPSLKGRITISHDTSKNQFSLKLSSVTAADTAVYYCARGLFWYFDVWGQGTTVTVSS
VL: DIQMTQSPSSLSASVGDRVTITCRTSENIFSYLAWYQQKPGKVPKLLVHNTKTLAEGVPSRFSGSGSGTDFTLTISSLQPEDVATYYCQHHYGNPLTFGQGTKLEIK
notes: Humanized, VH.V4 + VK.V2
With B3, in assay [1], the EC50 is 10.8 ng/mL. Besides, in assay [2], the Kd was 0.0196 nM, the dissociation rate constant (koff) was 9.97e-05 s⁻¹ and the kon was 5.09e+06 M⁻¹ s⁻¹.

B4: 76D12B10-Hu12 (antibody, V domains shown)
VH: EVQLQESGPGLVKPSETLSLTCAVSGYSISSGYDWHWIRQPPGKGLEWIGFIRDSGSTVYNPSLKGRITISHDTSKNQFSLKLSSVTAADTAVYYCARGLFWYFDVWGQGTTVTVSS
VL: DIQMTQSPSSLSASVGDRVTITCRTSENIFSYLAWYQQKPGKVPKLLVHNTKTLAEGVPSRFSGSGSGTDFTLTISSLQPEDVATYYCQHHYGNPLTFGQGTKLEIK
notes: Humanized, VH.V2 + VK.V2
As to B4, in assay [1], the EC50 was determined as 11.1 ng/mL. In assay [2], this molecule gave a Kd of 0.0244 nM, an off-rate constant (koff) of 0.00014 s⁻¹ and a kon of 5.75e+06 M⁻¹ s⁻¹.

B5: 76D12B10-Hu04 (antibody, V domains shown)
VH: EVQLQESGPGLVKPSETLSLTCAASGYSITSGYDWHWIRQPPGKGLEWMGFIRDSGSTVYNPSLKGRITISHDTSKNQFSLKLSSVTAADTAVYYCARGLFWYFDVWGQGTTVTVSS
VL: DIQMTQSPSSLSASVGDRVTITCRTSENIFSYLAWYQQKPGKVPKLLIYNTKTLAEGVPSRFSGSGSGTDFTLTISSLQPEDVATYYCQHHYGNPLTFGQGTKLEIK
notes: Humanized, VH.V4 + VK.V0
For the molecule B5, the EC50 in assay [1] came to 9.96 ng/mL. In assay [2], this molecule had a Kd of 0.0191 nM, a koff of 9.85e-05 s⁻¹ and a kon of 5.15e+06 M⁻¹ s⁻¹.

B6: 76D12B10-Hu05 (antibody, V domains shown)
VH: EVQLQESGPGLVKPSETLSLTCAASGYSITSGYDWHWIRQPPGKKLEWMGFIRDSGSTVYNPSLKGRITISHDTSKNQFSLKLSSVTAADTAVYFCARGLFWYFDVWGQGTTVTVSS
VL: DIQMTQSPSSLSASVGDRVTITCRTSENIFSYLAWYQQKPGKVPKLLIYNTKTLAEGVPSRFSGSGSGTDFTLTISSLQPEDVATYYCQHHYGNPLTFGQGTKLEIK
notes: Humanized, VH.V5 + VK.V0
As for B6, it took 10.1 ng/mL to reach a half-maximal effect in assay [1] (EC50). In assay [2], the Kd amounted to 0.0165 nM, the off-rate constant (koff) is 9.75e-05 s⁻¹ and the kon is 5.92e+06 M⁻¹ s⁻¹.

B7: 76D12B10-Hu11 (antibody, V domains shown)
VH: EVQLQESGPGLVKPSETLSLTCAVSGYSISSGYDWHWIRQPPGKGLEWIGFIRDSGSTVYNPSLKGRVTISHDTSKNQFSLKLSSVTAADTAVYYCARGLFWYFDVWGQGTTVTVSS
VL: DIQMTQSPSSLSASVGDRVTITCRTSENIFSYLAWYQQKPGKVPKLLVHNTKTLAEGVPSRFSGSGSGTDFTLTISSLQPEDVATYYCQHHYGNPLTFGQGTKLEIK
notes: Humanized, VH.V1 + VK.V2
In assay [1], B7 came in with a 50% effective concentration (EC50) of 7.09 ng/mL. Further, in assay [2], the Kd was 0.0255 nM, the dissociation rate constant (koff) amounted to 9.21e-05 s⁻¹ and the kon worked out at 3.62e+06 M⁻¹ s⁻¹.

B8: 76D12B10-Hu13 (antibody, V domains shown)
VH: EVQLQESGPGLVKPSETLSLTCAVSGYSISSGYDWHWIRQPPGKGLEWMGFIRDSGSTVYNPSLKGRITISHDTSKNQFSLKLSSVTAADTAVYYCARGLFWYFDVWGQGTTVTVSS
VL: DIQMTQSPSSLSASVGDRVTITCRTSENIFSYLAWYQQKPGKVPKLLVHNTKTLAEGVPSRFSGSGSGTDFTLTISSLQPEDVATYYCQHHYGNPLTFGQGTKLEIK
notes: Humanized, VH.V3 + VK.V2
B8: it took 12.1 ng/mL to reach a half-maximal effect in assay [1] (EC50). In addition, in assay [2], the Kd worked out at 0.0281 nM, the koff is 0.000128 s⁻¹ and the kon is 4.54e+06 M⁻¹ s⁻¹.

B9: 76D12B10-Hu15 (antibody, V domains shown)
VH: EVQLQESGPGLVKPSETLSLTCAASGYSITSGYDWHWIRQPPGKKLEWMGFIRDSGSTVYNPSLKGRITISHDTSKNQFSLKLSSVTAADTAVYFCARGLFWYFDVWGQGTTVTVSS
VL: DIQMTQSPSSLSASVGDRVTITCRTSENIFSYLAWYQQKPGKVPKLLVHNTKTLAEGVPSRFSGSGSGTDFTLTISSLQPEDVATYYCQHHYGNPLTFGQGTKLEIK
notes: Humanized, VH.V5 + VK.V2
Turning to B9, the EC50 in assay [1] came to 9.68 ng/mL. In assay [2], this molecule returned a Kd of 0.0135 nM, an off-rate (koff) of 0.000105 s⁻¹ and a kon of 7.76e+06 M⁻¹ s⁻¹.

B10: 76D12B10-Hu09 (antibody, V domains shown)
VH: EVQLQESGPGLVKPSETLSLTCAASGYSITSGYDWHWIRQPPGKGLEWMGFIRDSGSTVYNPSLKGRITISHDTSKNQFSLKLSSVTAADTAVYYCARGLFWYFDVWGQGTTVTVSS
VL: DIQMTQSPSSLSASVGDRVTITCRTSENIFSYLAWYQQKPGKVPKLLIHNTKTLAEGVPSRFSGSGSGTDFTLTISSLQPEDVATYYCQHHYGNPLTFGQGTKLEIK
notes: Humanized, VH.V4 + VK.V1
B10: a half-maximal effect in assay [1] (EC50) was put at 4.95 ng/mL. In assay [2], this molecule came in with a Kd of 0.0139 nM, a koff of 0.000125 s⁻¹ and a kon of 9.01e+06 M⁻¹ s⁻¹.

B11: 76D12B10-Hu10 (antibody, V domains shown)
VH: EVQLQESGPGLVKPSETLSLTCAASGYSITSGYDWHWIRQPPGKKLEWMGFIRDSGSTVYNPSLKGRITISHDTSKNQFSLKLSSVTAADTAVYFCARGLFWYFDVWGQGTTVTVSS
VL: DIQMTQSPSSLSASVGDRVTITCRTSENIFSYLAWYQQKPGKVPKLLIHNTKTLAEGVPSRFSGSGSGTDFTLTISSLQPEDVATYYCQHHYGNPLTFGQGTKLEIK
notes: Humanized, VH.V5 + VK.V1
Turning to B11, the EC50 in assay [1] was found to be 4.01 ng/mL. In addition, in assay [2], binding was characterised by a dissociation constant (Kd) of 0.0266 nM, the koff worked out at 9.79e-05 s⁻¹ and the kon turned out to be 3.68e+06 M⁻¹ s⁻¹.

B12: 76D12B10-Hu07 (antibody, V domains shown)
VH: EVQLQESGPGLVKPSETLSLTCAVSGYSISSGYDWHWIRQPPGKGLEWIGFIRDSGSTVYNPSLKGRITISHDTSKNQFSLKLSSVTAADTAVYYCARGLFWYFDVWGQGTTVTVSS
VL: DIQMTQSPSSLSASVGDRVTITCRTSENIFSYLAWYQQKPGKVPKLLIHNTKTLAEGVPSRFSGSGSGTDFTLTISSLQPEDVATYYCQHHYGNPLTFGQGTKLEIK
notes: Humanized, VH.V2 + VK.V1
Turning to B12, the response in assay [1] was half-maximal at 10.7 ng/mL (EC50). Also, in assay [2], the affinity, expressed as Kd, was 0.0186 nM; the koff is 8.93e-05 s⁻¹; the kon was determined as 4.8e+06 M⁻¹ s⁻¹.

B13: 76D12B10-Hu01 (antibody, V domains shown)
VH: EVQLQESGPGLVKPSETLSLTCAVSGYSISSGYDWHWIRQPPGKGLEWIGFIRDSGSTVYNPSLKGRVTISHDTSKNQFSLKLSSVTAADTAVYYCARGLFWYFDVWGQGTTVTVSS
VL: DIQMTQSPSSLSASVGDRVTITCRTSENIFSYLAWYQQKPGKVPKLLIYNTKTLAEGVPSRFSGSGSGTDFTLTISSLQPEDVATYYCQHHYGNPLTFGQGTKLEIK
notes: Humanized, VH.V1 + VK.V0
In assay [1], B13 showed an EC50 of 9.89 ng/mL. In assay [2], this molecule came in with a Kd of 0.0701 nM, a koff of 0.000104 s⁻¹ and a kon of 1.48e+06 M⁻¹ s⁻¹.
